Test results: article PMC9249340 (FEBS Open Bio, 2022)

How the values were obtained:
[1] = molecular target: the molecule itself; assay: SEC-SAXS; 50 µL at 8.5-10 mg/mL on a BioSEC3-300 column, 25 mM HEPES pH 7.5, 300 mM NaCl, +15 °C; monomer to dimer
[2] = molecular target: the molecule itself; assay: crystal structure; wild-type GDAP1Δ295-358, new crystal form, +8 °C, 200 mM NH4 formate, 25% PEG3350, 8.64 mg/mL protein

Row | Protein | stoichiometry N [1] | binding result [2]
1 | GDAP1Δ303‐358 R120W (domain or fragment, human, UniProt Q8TB36 1-302, looked up, GDAP1, human; printed as GDAP1Δ303-358 (residues 303-358 deleted) with the CMT2K-linked mutation R120W; Disease mutation that occurs in patients; also called R120W GDAP1; GDAP1∆303‐358 R120W; source: E. coli BL21(DE3), purified (Ni-NTA, TEV cleavage, second Ni-NTA, SEC); not shown: His6, N-terminal, cleaved) MAERQEEQRGSPPLRAEGKADAEVKLILYHWTHSFSSQKVRLVIAEKALKCEEHDVSLPLSEHNEPWFMRLNSTGEVPVLIHGENIICEATQIIDYLEQTFLDERTPRLMPDKESMYYPWVQHYRELLDSLPMDAYTHGCILHPELTVDSMIPAYATTRIRSQIGNTESELKKLAEENPDLQEAYIAKQKRLKSKLLDHDNVKYLKKILDELEKVLDQVETELQRRNEETPEEGQQPWLCGESFTLADVSLAVTLHRLKFLGFARRNWGNGKRPNLETYYERVLKRKTFNKVLGHVNNILIS | 2 | 
2 | GDAP1Δ303‐358 H123R (domain or fragment, human, UniProt Q8TB36 1-302, looked up, GDAP1, human; printed as GDAP1Δ303-358 (residues 303-358 deleted) with the Finnish founder CMT2K mutation H123R; Disease mutation that occurs in patients; also called H123R GDAP1; GDAP1∆303‐358 H123R; source: E. coli BL21(DE3), purified (Ni-NTA, TEV cleavage, second Ni-NTA, SEC); not shown: His6, N-terminal, cleaved) MAERQEEQRGSPPLRAEGKADAEVKLILYHWTHSFSSQKVRLVIAEKALKCEEHDVSLPLSEHNEPWFMRLNSTGEVPVLIHGENIICEATQIIDYLEQTFLDERTPRLMPDKESMYYPRVQRYRELLDSLPMDAYTHGCILHPELTVDSMIPAYATTRIRSQIGNTESELKKLAEENPDLQEAYIAKQKRLKSKLLDHDNVKYLKKILDELEKVLDQVETELQRRNEETPEEGQQPWLCGESFTLADVSLAVTLHRLKFLGFARRNWGNGKRPNLETYYERVLKRKTFNKVLGHVNNILIS | 2 | 
3 | GDAP1Δ295‐358 wild type (domain or fragment, human, UniProt Q8TB36 1-294, looked up, GDAP1, human; printed as GDAP1Δ295-358 (residues 295-358 deleted); also called wtGDAP1Δ295‐358; GDAPΔ295‐358; source: E. coli BL21(DE3), purified (Ni-NTA, TEV cleavage, second Ni-NTA, SEC on Superdex 200); not shown: His6, N-terminal, cleaved) MAERQEEQRGSPPLRAEGKADAEVKLILYHWTHSFSSQKVRLVIAEKALKCEEHDVSLPLSEHNEPWFMRLNSTGEVPVLIHGENIICEATQIIDYLEQTFLDERTPRLMPDKESMYYPRVQHYRELLDSLPMDAYTHGCILHPELTVDSMIPAYATTRIRSQIGNTESELKKLAEENPDLQEAYIAKQKRLKSKLLDHDNVKYLKKILDELEKVLDQVETELQRRNEETPEEGQQPWLCGESFTLADVSLAVTLHRLKFLGFARRNWGNGKRPNLETYYERVLKRKTFNKVLG |  | binds
